Article PMC7691350, “Integron gene cassettes harboring novel variants of D-alanine-D-alanine ligase confer high-level resistance to D-cycloserine” (Scientific Reports, 2020)
Read-outs that look alike come from different tables or passages of the source.

Columns and labels:
Ddl6 = assay: PK/LDH-coupled spectrophotometric assay, […] nm; assay type: biochemical; settings: 10 mM MgCl2, 10 mM KCl, 100 mM HEPES pH 7.5, 37 °C
C[C@@H](N)C(=O)O = assay: purified protein; settings: second D-alanine binding, 500 µM ATP, 10 mM MgCl2, 10 mM KCl, 100 mM HEPES pH 7.5, 37 °C
[1] = tested on: Nc1ncnc2c1ncn2[C@@H]1O[C@H](COP(=O)(O)OP(=O)(O)OP(=O)(O)O)[C@@H](O)[C@H]1O; assay: purified protein; settings: 100 mM D-alanine, ATP 5-320 µM, 10 mM MgCl2, 10 mM KCl, 100 mM HEPES pH 7.5, 37 °C

Compound	Km (Ddl6; read-out: Km, ATP, 100 mM D-alanine, ATP 5-320 µM)	Km (Ddl6; second D-alanine binding, 500 µM ATP, read-out: Km, D-ala2)	Km (C[C@@H](N)C(=O)O)	kcat (C[C@@H](N)C(=O)O)	kcat/Km (C[C@@H](N)C(=O)O)	Km [1]
Nc1ncnc2c1ncn2[C@@H]1O[C@H](COP(=O)(O)OP(=O)(O)OP(=O)(O)O)[C@@H](O)[C@H]1O [ATP]	55 µM					
C[C@@H](N)C(=O)O [D-alanine]		390 µM				
DdlAEc (Escherichia coli K-12)			520 µM	6.43 s⁻¹	12500 M⁻¹ s⁻¹	48.99 µM
DdlTd (Treponema denticola ATCC 35405)			450 µM	3.74 s⁻¹	8290 M⁻¹ s⁻¹	19.08 µM
